Results as given in US20250312499A1, “KISSPEPTIN RECEPTOR (KISS1R) TARGETED THERAPEUTICS AND USES THEREOF” (priority 2024, published 2025).
Values belong to the binder of their own block, whether it stands above or below them. Numbered stars: 1 amine (or outer) side, 2 acyl side, 3 side chain; on linkers, the order of the positions; unused ones are H or OH. Square brackets hold non-standard residues; d marks the D form. * marks the point of attachment. X2 = 4‑amino‑1‑((3-fluoro-4-methylbenzyl)glycyl)piperidine‑4‑carboxylic acid, Cc1ccc(CN(CC(=O)N2CCC(N[*:1])(C(=O)[*:2])CC2)[*:3])cc1F; Apc(4-OMe) = 4-aminopiperidine-4-carboxylic acid residue N1-acylated by a methoxy-bearing benzylglycyl; DOTA = O=C(O)CN1CCN(CC(=O)O)CCN(CC(=O)*)CCN(CC(=O)O)CC1; Api(1-amidino) = N=C(N)N1CCC(N)(C(=O)O)CC1; Phe(4-CN) = N#Cc1ccc(C[C@H](N)C(=O)O)cc1; HO(CH2CH2O)2CH2CH2CO = O=C(CCOCCOCCO)*; Phe(3-F) = N[C@@H](Cc1cccc(F)c1)C(=O)O; 2Nal = N[C@@H](Cc1ccc2ccccc2c1)C(=O)O; 4Pal = N[C@@H](Cc1ccncc1)C(=O)O; 4Amb = NCc1ccc(C(=O)O)cc1; APM = not defined here; Ahx = NCCCCCC(=O)O; azaGly = NNC(=O)O

Biological target: human kisspeptin receptor (KISS1R) (human), Q969F8
Test: radioligand competition, hKISS1R membranes; legend: A is <10 nM

Sequence of human kisspeptin receptor (KISS1R) (human), Q969F8 (Q969F8 whole entry): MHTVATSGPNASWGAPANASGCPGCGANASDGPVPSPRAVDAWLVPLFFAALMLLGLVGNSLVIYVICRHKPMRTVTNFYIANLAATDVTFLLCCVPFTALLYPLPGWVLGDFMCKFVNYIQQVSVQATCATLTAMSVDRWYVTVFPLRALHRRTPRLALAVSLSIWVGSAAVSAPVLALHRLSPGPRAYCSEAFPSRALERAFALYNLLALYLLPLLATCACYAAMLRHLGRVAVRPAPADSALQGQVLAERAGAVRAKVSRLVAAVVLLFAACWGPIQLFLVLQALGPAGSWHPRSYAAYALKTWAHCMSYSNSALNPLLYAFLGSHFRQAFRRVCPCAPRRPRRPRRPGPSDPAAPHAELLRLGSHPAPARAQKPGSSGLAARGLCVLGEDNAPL

B14: Compound 270 (peptide)
peptide: {DOTA-Ahx-4Amb}-[dY][dW]NTF[azaGly]L[Api(1-amidino)]W-NH2
SMILES: CC(C)C[C@H](NC(=O)NNC(=O)[C@H](Cc1ccccc1)NC(=O)[C@@H](NC(=O)[C@H](CC(N)=O)NC(=O)[C@@H](Cc1c[nH]c2ccccc12)NC(=O)[C@@H](Cc1ccc(O)cc1)NC(=O)c1ccc(CNC(=O)CCCCCNC(=O)CN2CCN(CC(=O)O)CCN(CC(=O)O)CCN(CC(=O)O)CC2)cc1)[C@@H](C)O)C(=O)NC1(C(=O)N[C@@H](Cc2c[nH]c3ccccc23)C(N)=O)CCN(C(=N)N)CC1
Ki: < 10 nM

B15: Compound 242 (peptide)
peptide: {DOTA-4Amb}-[dE]NTF[azaGly]L[X2][Phe(4-CN)]-NH2
SMILES: Cc1ccc(CNCC(=O)N2CCC(NC(=O)[C@H](CC(C)C)NC(=O)NNC(=O)[C@H](Cc3ccccc3)NC(=O)[C@@H](NC(=O)[C@H](CC(N)=O)NC(=O)[C@@H](CCC(=O)O)NC(=O)c3ccc(CNC(=O)CN4CCN(CC(=O)O)CCN(CC(=O)O)CCN(CC(=O)O)CC4)cc3)[C@@H](C)O)(C(=O)N[C@@H](Cc3ccc(C#N)cc3)C(N)=O)CC2)cc1F
Ki: < 10 nM

B16: Compound 253 (peptide)
peptide: {HO(CH2CH2O)2CH2CH2CO}-K(DOTA)NTF[azaGly]L[X2][4Pal]-NH2
SMILES: Cc1ccc(CNCC(=O)N2CCC(NC(=O)[C@H](CC(C)C)NC(=O)NNC(=O)[C@H](Cc3ccccc3)NC(=O)[C@@H](NC(=O)[C@H](CC(N)=O)NC(=O)[C@H](CCCCNC(=O)CN3CCN(CC(=O)O)CCN(CC(=O)O)CCN(CC(=O)O)CC3)NC(=O)CCOCCOCCO)[C@@H](C)O)(C(=O)N[C@@H](Cc3ccncc3)C(N)=O)CC2)cc1F
Ki: < 10 nM

B17: Compound 254 (peptide)
peptide: {HO(CH2CH2O)2CH2CH2CO}-[dK](DOTA)NTF[azaGly]L[X2][4Pal]-NH2
SMILES: Cc1ccc(CNCC(=O)N2CCC(NC(=O)[C@H](CC(C)C)NC(=O)NNC(=O)[C@H](Cc3ccccc3)NC(=O)[C@@H](NC(=O)[C@H](CC(N)=O)NC(=O)[C@@H](CCCCNC(=O)CN3CCN(CC(=O)O)CCN(CC(=O)O)CCN(CC(=O)O)CC3)NC(=O)CCOCCOCCO)[C@@H](C)O)(C(=O)N[C@@H](Cc3ccncc3)C(N)=O)CC2)cc1F
Ki: < 10 nM

B18: Compound 235 (peptide)
peptide: {DOTA-Ahx}-NTF[azaGly]L[Apc(4-OMe)]F-NH2
Ki: < 10 nM

B19: Compound 236 (peptide)
peptide: {DOTA-Ahx}-ENTF[azaGly]L[Apc(4-OMe)]F-NH2
Ki: < 10 nM

B20: Compound 234 (peptide)
peptide: {DOTA-APM}-ETF[azaGly]L[X2]W-NH2
modifications: reading uncertain
Ki: < 10 nM

B21: Compound 255 (peptide)
peptide: {3‑(2-(2-methoxyethoxy)ethoxy)propanoyl}-K(DOTA)NTF[azaGly]L[X2][4Pal]-NH2
Ki: < 10 nM

B22: Compound 240 (peptide)
peptide: {DOTA-4Amb}-NTFGL[X2][Phe(4-CN)]-NH2
modifications: not fully specified
Ki: < 10 nM

B23: Compound 206 (peptide)
peptide: {DOTA-4Amb}-[dE]NTF[azaGly]L[X2]Y-NH2
SMILES: Cc1ccc(CNCC(=O)N2CCC(NC(=O)[C@H](CC(C)C)NC(=O)NNC(=O)[C@H](Cc3ccccc3)NC(=O)[C@@H](NC(=O)[C@H](CC(N)=O)NC(=O)[C@@H](CCC(=O)O)NC(=O)c3ccc(CNC(=O)CN4CCN(CC(=O)O)CCN(CC(=O)O)CCN(CC(=O)O)CC4)cc3)[C@@H](C)O)(C(=O)N[C@@H](Cc3ccc(O)cc3)C(N)=O)CC2)cc1F
Ki: < 10 nM

B24: Compound 237 (peptide)
peptide: {DOTA}-ENTF[azaGly]L[Apc(4-OMe)]F-NH2
Ki: < 10 nM

B25: Compound 266 (peptide)
peptide: {DOTA}-[dY][2Nal]NTF[azaGly]L[Api(1-amidino)]W-NH2
SMILES: CC(C)C[C@H](NC(=O)NNC(=O)[C@H](Cc1ccccc1)NC(=O)[C@@H](NC(=O)[C@H](CC(N)=O)NC(=O)[C@H](Cc1ccc2ccccc2c1)NC(=O)[C@@H](Cc1ccc(O)cc1)NC(=O)CN1CCN(CC(=O)O)CCN(CC(=O)O)CCN(CC(=O)O)CC1)[C@@H](C)O)C(=O)NC1(C(=O)N[C@@H](Cc2c[nH]c3ccccc23)C(N)=O)CCN(C(=N)N)CC1
Ki: < 10 nM

B26: Compound 247 (peptide)
peptide: {DOTA-APM}-F[azaGly]L[X2]Y-NH2
modifications: reading uncertain
Ki: < 10 nM

B27: Compound 213 (peptide)
peptide: {DOTA}-GY[4Amb]NTF[azaGly]L[X2]W-NH2
SMILES: Cc1ccc(CNCC(=O)N2CCC(NC(=O)[C@H](CC(C)C)NC(=O)NNC(=O)[C@H](Cc3ccccc3)NC(=O)[C@@H](NC(=O)[C@H](CC(N)=O)NC(=O)c3ccc(CNC(=O)[C@H](Cc4ccc(O)cc4)NC(=O)CNC(=O)CN4CCN(CC(=O)O)CCN(CC(=O)O)CCN(CC(=O)O)CC4)cc3)[C@@H](C)O)(C(=O)N[C@@H](Cc3c[nH]c4ccccc34)C(N)=O)CC2)cc1F
Ki: < 10 nM

B28: Compound 264 (peptide)
peptide: {3‑(2-(2-methoxyethoxy)ethoxy)propanoyl}-K(DOTA)NTF[azaGly]L[Api(1-amidino)]W-NH2
Ki: < 10 nM

B29: Compound 11 (peptide)
peptide: {DOTA-Ahx}-FGL[X2]Y-NH2
SMILES: Cc1ccc(CNCC(=O)N2CCC(NC(=O)[C@H](CC(C)C)NC(=O)CNC(=O)[C@H](Cc3ccccc3)NC(=O)CCCCCNC(=O)CN3CCN(CC(=O)O)CCN(CC(=O)O)CCN(CC(=O)O)CC3)(C(=O)N[C@@H](Cc3ccc(O)cc3)C(N)=O)CC2)cc1F
Ki: < 10 nM

The next lines start with the values.

Ki: < 10 nM
B1: Compound 241 (peptide)
peptide: {DOTA-4Amb}-ENTF[azaGly]L[X2][Phe(4-CN)]-NH2
SMILES: Cc1ccc(CNCC(=O)N2CCC(NC(=O)[C@H](CC(C)C)NC(=O)NNC(=O)[C@H](Cc3ccccc3)NC(=O)[C@@H](NC(=O)[C@H](CC(N)=O)NC(=O)[C@H](CCC(=O)O)NC(=O)c3ccc(CNC(=O)CN4CCN(CC(=O)O)CCN(CC(=O)O)CCN(CC(=O)O)CC4)cc3)[C@@H](C)O)(C(=O)N[C@@H](Cc3ccc(C#N)cc3)C(N)=O)CC2)cc1F

Ki: < 10 nM
B2: Compound 233 (peptide)
peptide: {DOTA-APM}-TF[azaGly]L[X2]W-NH2
modifications: reading uncertain

Ki: < 10 nM
B3: Compound 232 (peptide)
peptide: {DOTA-4Amb}-[D‑3‑aminopentanedioic acid]NT[Phe(3-F)][azaGly]L[X2][4Pal]-NH2

Ki: < 10 nM
B4: Compound 205 (peptide)
peptide: {DOTA-4Amb}-NTF[azaGly]L[X2]Y-NH2
SMILES: Cc1ccc(CNCC(=O)N2CCC(NC(=O)[C@H](CC(C)C)NC(=O)NNC(=O)[C@H](Cc3ccccc3)NC(=O)[C@@H](NC(=O)[C@H](CC(N)=O)NC(=O)c3ccc(CNC(=O)CN4CCN(CC(=O)O)CCN(CC(=O)O)CCN(CC(=O)O)CC4)cc3)[C@@H](C)O)(C(=O)N[C@@H](Cc3ccc(O)cc3)C(N)=O)CC2)cc1F

Ki: < 10 nM
B5: Compound 238 (peptide)
peptide: {DOTA-Ahx}-ENTF[azaGly]L[X2]W-NH2
SMILES: Cc1ccc(CNCC(=O)N2CCC(NC(=O)[C@H](CC(C)C)NC(=O)NNC(=O)[C@H](Cc3ccccc3)NC(=O)[C@@H](NC(=O)[C@H](CC(N)=O)NC(=O)[C@H](CCC(=O)O)NC(=O)CCCCCNC(=O)CN3CCN(CC(=O)O)CCN(CC(=O)O)CCN(CC(=O)O)CC3)[C@@H](C)O)(C(=O)N[C@@H](Cc3c[nH]c4ccccc34)C(N)=O)CC2)cc1F

Ki: < 10 nM
B6: Compound 256 (peptide)
peptide: {1‑hydroxy‑3,6,9,12,15,18,21,24‑octaoxaheptacosan‑27‑oyl}-K(DOTA)NTF[azaGly]L[X2][4Pal]-NH2

Ki: < 10 nM
B7: Compound 244 (peptide)
peptide: {DOTA-APM}-F[azaGly]L[X2][Phe(4-CN)]-NH2
modifications: reading uncertain

Ki: < 10 nM
B8: Compound 272 (peptide)
peptide: {DOTA-4Amb}-NTF[azaGly]L[Api(1-amidino)][4Pal]-NH2
SMILES: CC(C)C[C@H](NC(=O)NNC(=O)[C@H](Cc1ccccc1)NC(=O)[C@@H](NC(=O)[C@H](CC(N)=O)NC(=O)c1ccc(CNC(=O)CN2CCN(CC(=O)O)CCN(CC(=O)O)CCN(CC(=O)O)CC2)cc1)[C@@H](C)O)C(=O)NC1(C(=O)N[C@@H](Cc2ccncc2)C(N)=O)CCN(C(=N)N)CC1

Ki: < 10 nM
B9: Compound 249 (peptide)
peptide: {DOTA-APM}-NTF[azaGly]L[X2]Y-NH2
modifications: reading uncertain

Ki: < 10 nM
B10: Compound 245 (peptide)
peptide: {DOTA-APM}-F[azaGly]L[X2]F-NH2
modifications: reading uncertain

Ki: < 10 nM
B11: Compound 250 (peptide)
peptide: {DOTA-APM}-TF[azaGly]L[X2]Y-NH2
modifications: reading uncertain

Ki: < 10 nM
B12: Compound 218 (peptide)
peptide: {DOTA-APM}-ENT[beta‑(2-thienyl)alanine][azaGly]L[X2]W-NH2
modifications: reading uncertain

Ki: < 10 nM
B13: Compound 10 (peptide)
peptide: {DOTA-Ahx}-FGL[X2]W-NH2
SMILES: Cc1ccc(CNCC(=O)N2CCC(NC(=O)[C@H](CC(C)C)NC(=O)CNC(=O)[C@H](Cc3ccccc3)NC(=O)CCCCCNC(=O)CN3CCN(CC(=O)O)CCN(CC(=O)O)CCN(CC(=O)O)CC3)(C(=O)N[C@@H](Cc3c[nH]c4ccccc34)C(N)=O)CC2)cc1F
